# Positions count from the first letter of the chain named.
# T1: Human DLL3 expressed on cells (HEK293T-hDLL3, NCI-H82, SHP-77, MC38-hDLL3) (human, UniProt Q9NYJ7 27-618)
# T1 construct: also called DLL3 endogenously expressed on human cells
# T1 sequence: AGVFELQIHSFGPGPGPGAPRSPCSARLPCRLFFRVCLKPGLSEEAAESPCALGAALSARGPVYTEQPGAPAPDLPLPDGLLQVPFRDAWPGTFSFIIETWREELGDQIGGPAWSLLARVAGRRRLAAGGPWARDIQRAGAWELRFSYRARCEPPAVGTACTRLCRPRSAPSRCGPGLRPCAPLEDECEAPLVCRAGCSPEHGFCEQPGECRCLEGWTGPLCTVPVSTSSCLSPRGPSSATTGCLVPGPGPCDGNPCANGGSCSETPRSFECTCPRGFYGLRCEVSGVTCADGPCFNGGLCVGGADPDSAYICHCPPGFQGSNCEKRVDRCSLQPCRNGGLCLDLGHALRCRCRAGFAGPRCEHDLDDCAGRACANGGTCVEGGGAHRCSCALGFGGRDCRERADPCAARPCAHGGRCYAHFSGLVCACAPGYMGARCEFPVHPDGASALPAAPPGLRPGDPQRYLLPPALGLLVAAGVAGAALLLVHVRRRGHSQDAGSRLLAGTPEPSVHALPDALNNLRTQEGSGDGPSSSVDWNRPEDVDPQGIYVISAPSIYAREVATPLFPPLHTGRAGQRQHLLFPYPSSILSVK
# T2: hDLL3 ECD-Avi-Fckih (biotinylated extracellular domain of human DLL3, residues 27 to 466, Avi-tag, 3C site, … (human, UniProt Q9NYJ7 27-466, biotinylated at the Avi-tag))
# T2 construct: The make-up of the second Fc chain of the knob-into-hole pair is not described; also called bio-DLL3; recombinant human DLL3; not shown: Avi-tag, 3C protease recognition site and Fc knob into hole
# T2 sequence: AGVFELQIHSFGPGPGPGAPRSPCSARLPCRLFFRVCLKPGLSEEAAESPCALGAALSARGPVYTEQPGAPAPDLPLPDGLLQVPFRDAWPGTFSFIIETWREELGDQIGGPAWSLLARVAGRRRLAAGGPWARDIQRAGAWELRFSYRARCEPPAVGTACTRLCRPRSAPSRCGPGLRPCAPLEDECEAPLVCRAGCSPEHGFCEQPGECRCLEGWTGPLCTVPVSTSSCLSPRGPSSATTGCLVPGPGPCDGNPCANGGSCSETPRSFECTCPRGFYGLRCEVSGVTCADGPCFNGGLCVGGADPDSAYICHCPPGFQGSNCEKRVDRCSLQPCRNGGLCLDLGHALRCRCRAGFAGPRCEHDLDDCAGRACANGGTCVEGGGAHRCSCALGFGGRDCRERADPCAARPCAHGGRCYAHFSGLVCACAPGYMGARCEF
# B1: MAM283 conjugate: SEQ ID NO: 16 conjugated to DOTAM-maleimide, labelled with Pb-212 (natural lead in PK studies) (conjugate)
# chain: GSDLGKKLLEAARAGQDDEVRELLKAGADVNAKDYFSHTPLHLAARNGHLKIVEVLLKAGADVNAKDFAGKTPLHLAADAGHLEIVEVLLKAGADVNAQDIFGKTPADIAADAGHEDIAEVLQKAAGSPTPTPTTPTPTPTTPTPTPTGSDLGKKLLAAAADGQDDEVRELLQAGADVNAKDLFGYTPLHLAAWRGHLEIVEVLLEAGADVNAKDAAGETPLHLAAWFGHLEIVEVLLEAGADVNAQDVQGKTPADLAAKEGHEDIAEVLQQAAGSGSC
# modifications: DOTAM-maleimide, Pb-212 label; Ankyrin repeat protein with tag (GS-MAM283-tag)
# B2: Non-binding DARPin control comprising SEQ ID NO: 21 (designed binder)
# chain: DLGKKLLEAARAGQDDEVRELLKAGADVNAKDKDGYTPLHLAAREGHLEIVEVLLKAGADVNAKDKDGYTPLHLAAREGHLEIVEVLLKAGADVNAQDKSGKTPADLAADAGHEDIAEVLQKAA
# notes: Negative control on HEK293T-hDLL3 cells
# B3: MAM160 (two domain ankyrin repeat protein, N-terminal His6-TEV tag) (designed binder)
# chain: MRGSHHHHHHENLYFQDLGKKLLEAARAGQDDEVRELLKAGADVNAKDYFSHTPLHLAARNGHLKIVEVLLKAGADVNAKDFAGKTPLHLAADAGHLEIVEVLLKAGADVNAQDIFGKTPADIAADAGHEDIAEVLQKAAGSPTPTPTTPTPTPTTPTPTPTGSDLGTKLLSAAADGQDDEVRELLQAGADVNAKDLFGYTPLHLAAWRGHLEIVEVLLEAGADVNAKDAAGLTPLHLAAWFGHLEIVEVLLEAGADVNAQDVQGVTPADLAAKEGHEDIAEVLQQAA
# notes: also called 2D DARPin
# B4: MAM112 (single domain ankyrin repeat protein, His-tagged) (designed binder)
# chain: DLGKKLLAAAADGQDDEVRELLQAGADVNAKDLFGYTPLHLAAWRGHLEIVEVLLEAGADVNAKDAAGETPLHLAAWFGHLEIVEVLLEAGADVNAQDVQGKTPADLAAKEGHEDIAEVLQQAA
# notes: also called 1D DARPin; not shown: His-tag
# B5: MAM093 (single domain ankyrin repeat protein, His-tagged) (designed binder)
# chain: B4 chain with D12Q, Q23K, D27N, E56K, E89K, V99L, Q122K
# notes: as for B4
# B6: MAM120 (single domain ankyrin repeat protein, His-tagged) (designed binder)
# chain: B4 chain with K4T, A8S, E69L, K102V
# notes: as for B4
# B7: MAM088 (single domain ankyrin repeat protein, His-tagged) (designed binder)
# chain: DLGKKLLAAAREGQDDEVRELLKAGADVNAKDIWGQTPLHIAAWFGHLEIVEVLLKAGADVNAKDQTGHTPLHLAAKFGHLEIVEVLLKAGADVNAQDLLGRTPADLAAEEGHEDIAEVLQKAA
# notes: as for B4
# What was measured:
# [1] = Dose response finding (tolerability) in WT CD1 mice
# [2] = Pharmacokinetic analysis in WT BALBc mice (serum, ELISA); assay type: in vivo, mouse; conditions: 1 mg/kg i.v.
# Description: The pharmacokinetic (PK) properties of lead-labelled DARPin (MAM160, MAM279, MAM282, MAM283) conjugates were investigated in mice, including to determine the terminal half-life (or serum half-life) of these conjugates.
# In brief, DARPins MAM279, MAM283, MAM160 and MAM282 were conjugated to the chelator DOTAM, via a C-terminal Cysteine containing tag and a connector, as described in Example 3. The conjugates were then labelled with natural lead (Pb). The protein components of the conjugates corresponded to SEQ ID NOs: 15 to 18, respectively. These lead-labelled DARPin conjugates were injected i.v. at 1 mg/kg into WT BALBc mice. Serum was collected 2 min, 10 min, 30 min, 1 h, 4 h, 24 h, 48 h, and 72 h post-injection. DARPins were detected and measured by ELISA. The data were expressed as the DARPin concentration in serum (nmol/L).
# In brief, lead-labelled MAM279 conjugate, as described in Example 13, was injected i. at 0.1 mg/kg or at 1 mg/kg into the tail vein of WT BALBc mice. Serum was collected 2 min, 10 min, 30 min, 1 h, 4 h, 24 h, 48 h, and 72 h post-injection for MAM279 conjugate injected at 1 mg/kg, and 2 min, 30 min, 4 h, 24 h, 30 h, 48 h, 72 h, 96 h, and 168 h post-injection for MAM279 conjugate injected at 0.1 mg/kg. DARPins were detected and measured by ELISA. The data were expressed as the DARPin concentration in serum (nmol/L).
# In brief, natural lead-labelled MAM279 conjugate, as described in Example 13, was injected i.v. at different doses (0.001 mg/kg, 0.01 mg/kg, 0.1 mg/kg, or 1 mg/kg) into the tail vein of WT BALBc mice. Similarly, unconjugated Rova was injected iv. at 1 mg/kg into the tail vein of WT BALBc mice. Serum was collected 2 min, 10 min, 30 min, 1 h, 4 h, 24 h, 48 h, and 72 h post-injection for MAM279 conjugate injected at 1 mg/kg, and 2 min, 30 min, 4 h, 24 h, 30 h, 48 h, 72 h, 96 h, and 168 h post-injection for MAM279 conjugate injected at 0.1 mg/kg, 0.01 mg/kg and 0.001 mg/kg. Serum was collected 2 min, 30 min, 4 h, 24 h, 30 h, 48 h, 72 h, 96 h, and 168 h post-injection for Rova antibody injected at 1 mg/kg. DARPins and Rova were detected and measured by ELISA. Rova PK characteristics were calculated with time points between 4 h and 168 h and MAM279 conjugate PK characteristics were calculated with time points between 4 h and 72 h. The data were expressed as the DARPin or Rova concentration in serum (nmol/L). Results are shown in FIGS. 19A and 19B and Table 22.
# [3] = molecular target: T1, Human DLL3 expressed on cells …; assay: flow cytometry titration on HEK293T-hDLL3 cells, without HSA
# Protocol: (§1) Cell binding titration assays were performed for selected His-tagged single domain (1 D) and two domain (2D) designed ankyrin repeat proteins to determine binding to human DLL3 expressed on HEK293T-huDLL3 cells in absence and presence of human serum albumin. […] HEK293T-hDLL3 cells are HEK293T cells that were stably transfected to express human DLL3 on their surface.
# (§2) In brief, 1×10⁵ cells/well were resuspended in 100 μl DARPin dilution (500 nM, 1:5 serial diluted) and incubated for 1 h at 4° C. Cells were washed twice with PBS and resuspended in 100 μl anti-DARPin antibody (rabbit anti-DARPin 1.4.8) and LIVE/DEAD fixable cell stain (1:1000, Thermo Fisher #L34957). This step was performed in absence and presence of […] Human Serum Albumin (CSL Behring #150570). After incubation and washing, cells were incubated with detection antibody for 30 minutes (Goat […] IgG (H+L), AF647, Thermo Fisher #21445). Cells were fixed (Paraformaldehyde Solution, LucernaChem) and acquired at Attune N×T (Thermo Life Technologies). Raw fcs files were exported and analyzed using FlowJo software. MFI values of live AF647-positive cells were exported from FlowJo and plotted using GraphPad Prism software.
# [4] = molecular target: T1, Human DLL3 expressed on cells …; assay: flow cytometry titration on HEK293T-hDLL3 cells, with HSA
# Protocol: as §1, §2
# [5] = molecular target: T2, hDLL3 ECD-Avi-Fckih (biotinylated …); assay: SPR (ProteOn), biotinylated hDLL3 ECD-Avi-Fckih on chip, DARPin as analyte, 1:1 Langmuir fit
# Protocol: Kinetic binding parameters and binding affinities of two domain (2D) ankyrin repeat proteins comprising an ankyrin repeat domain with binding specificity for DLL3 and an ankyrin repeat domain with binding specificity for serum albumin were determined by surface plasmon resonance (SPR) multi-trace analysis.
# In brief, a SPR assay was used to determine the binding kinetics to the target human DLL3. The data were generated using BioRad ProteOn instrument in SPR running buffer (PBS, pH 7.4 containing 0.005% Tween 20®). […] The chip was coated with biotinylated target (bio-DLL3) to reach a signal intensity of 1780 RU. […] Each injection was followed by a regeneration step with 16 mM H₃PO₄ for 18 s. […] The bio-DLL3 target used was as described in U.S. 63/550,951, i.e. the extracellular domain (ECD) of human DLL3 protein (Q9NYJ7, Gene ID: 10683, residues 27 to 466; purchased from Evitria) linked via an Avi-tag (for site-directed biotinylation), followed by a 3C protease recognition site, to a Fc knob into hole (hDLL3 ECD-Avi-Fcₖᵢₕ).
# [6] = molecular target: T3, mouse serum albumin (mouse, UniProt P07724 25-608); assay: SPR (Bruker Sierra SPR-32), MSA on chip, DARPin as analyte, 1:1 Langmuir fit
# T3 construct: also called MSA
# T3 sequence (P07724 25-608 limits assumed): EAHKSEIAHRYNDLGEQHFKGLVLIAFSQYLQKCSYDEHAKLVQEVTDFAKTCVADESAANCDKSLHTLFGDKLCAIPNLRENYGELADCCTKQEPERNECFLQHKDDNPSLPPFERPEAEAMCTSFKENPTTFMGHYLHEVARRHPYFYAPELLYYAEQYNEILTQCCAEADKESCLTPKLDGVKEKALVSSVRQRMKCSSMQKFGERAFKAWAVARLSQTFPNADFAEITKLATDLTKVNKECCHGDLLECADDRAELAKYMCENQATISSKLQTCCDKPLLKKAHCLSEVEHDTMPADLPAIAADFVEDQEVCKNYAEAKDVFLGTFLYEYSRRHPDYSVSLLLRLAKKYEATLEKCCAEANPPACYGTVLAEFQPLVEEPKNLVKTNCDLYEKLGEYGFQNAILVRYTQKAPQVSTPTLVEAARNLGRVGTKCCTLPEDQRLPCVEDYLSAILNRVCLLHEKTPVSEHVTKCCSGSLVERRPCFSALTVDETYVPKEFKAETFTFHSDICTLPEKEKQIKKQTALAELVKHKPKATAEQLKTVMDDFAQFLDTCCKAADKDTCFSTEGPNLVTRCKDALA
# Protocol: (§3) Similarly, a SPR assay was used to determine the binding kinetics to human or mouse serum albumin. […] All analytes (3-fold dilution ranging from 1000-12.35 nM) were injected in succession for 240 s (25 μl/min) and dissociation was recorded for 600 s (25 μl/min).
# [7] = molecular target: T4, human serum albumin (human, UniProt P02768 25-609); assay: SPR (Bruker Sierra SPR-32), HSA on chip, DARPin as analyte, 1:1 Langmuir fit
# T4 construct: also called HSA
# Protocol: as §3
molecule,measurement,setting,value
B1,appearance of animals,"[1]; Pb-212 labelled conjugate injected once at 10 μCi, 20 μCi and 30 μCi i.v., WT CD1 mice",animals appeared healthy and active
same,body weight (BW) change,"[1]; Pb-212 labelled conjugate injected once at 10 μCi, 20 μCi and 30 μCi, WT CD1 mice, recovered within up to about 10 days",Minimal weight loss
same,toxicity,"[1]; Pb-212 labelled conjugate, injected dose of 60 μCi, WT CD1 mice",Toxicity was observed
same,"hematology profile (white blood cells, lymphocytes, monocytes, neutrophils)","[1]; within up to 28 days after injection of 10 μCi, 20 μCi and 30 μCi doses (data not shown)",complete recovery
same,serum half-life,[2],12.7 h
B2,binding result,[3],no binding (tested: 500 nM)
B3,EC50,[4],36.6 nM
same,Kd,[5],1.99 nM
same,koff,[5],2.01e-05 s⁻¹
same,kon,[5],10100 M⁻¹ s⁻¹
same,EC50,[3],18.9 nM
same,Kd,[6],336 nM
same,koff,[6],0.0271 s⁻¹
same,kon,[6],80400 M⁻¹ s⁻¹
same,Kd,[7],95.9 nM
same,koff,[7],0.0105 s⁻¹
same,kon,[7],110000 M⁻¹ s⁻¹
B4,EC50,[4],4.6 nM
same,EC50,[3],4.2 nM
B5,EC50,[4],5.5 nM
same,EC50,[3],4.9 nM
B6,EC50,[4],8 nM
same,EC50,[3],7 nM
B7,EC50,[4],5.1 nM
same,EC50,[3],5 nM

# Reference: patent US20250332297A1, “DLL3-SPECIFIC BINDING CONSTRUCTS AND THEIR USE IN RADIOTHERAPY” (MOLECULAR PARTNERS AG, priority 2024, published 2025)
